Assay results from ChEMBL document CHEMBL1136774, “Pharmacophore and quantitative structure-activity relationship modeling: complementary approaches for the rationalization and prediction of UDP-glucuronosyltransferase 1A4 substrate selectivity” (J Med Chem, 2003).

Legend:
[1] = target: UGT1A4 (UDP-glucuronosyltransferase 1A4) (Homo sapiens, UniProt P22310); assay: (§1) Binding affinity against human UDP Glucuronosyltransferase 1A4 (UGT1A4); details: read-out: Km,app
[2] = substrate: Nc1ccccc1-c1ccccc1; assay: as §1
[3] = substrate: CC1(C)[C@H]2CC[C@]1(C)[C@H](O)C2; assay: as §1
[4] = substrate: CN1CCC(=C2c3ccccc3C=Cc3ccccc32)CC1; assay: as §1
[5] = substrate: C=CCc1ccc(O)c(OC)c1; assay: as §1
[6] = substrate: CN(C)CCCN1c2ccccc2CCc2ccccc21; assay: as §1
[7] = substrate: [H][C@@]12CC[C@]3([H])[C@]([H])(CC[C@@]4(C)[C@@]3([H])CC[C@]4([H])[C@H](C)O)[C@@]1(C)CC[C@H](O)C2; assay: as §1
[8] = substrate: O=[N+]([O-])c1ccc(O)cc1; assay: as §1
[9] = substrate: CN1CCC(=C2c3ccccc3CC(=O)c3sccc32)CC1; assay: as §1
[10] = substrate: CN1CCN(C2=Nc3cc(Cl)ccc3Nc3ccccc32)CC1; assay: as §1
[11] = substrate: C[C@@H]1CC[C@@]2(OC1)O[C@H]1C[C@H]3[C@@H]4CC=C5C[C@@H](O)CC[C@]5(C)[C@H]4CC[C@]3(C)[C@H]1[C@@H]2C; assay: as §1
[12] = substrate: C[C@@H]1CC[C@@]2(OC1)O[C@H]1C[C@H]3[C@@H]4CC[C@@]5(C)C[C@@H](O)CC[C@]5(C)[C@H]4CC(=O)[C@]3(C)[C@H]1[C@@H]2C; assay: as §1
[13] = substrate: c1ccc(Nc2ccccc2)cc1; assay: as §1
[14] = substrate: O=c1c(-c2ccc(O)cc2)coc2cc(O)ccc12; assay: as §1
[15] = substrate: [H][C@@]12CC[C@]3([H])[C@]([H])(CC[C@]4(C)C(C)(O)CC[C@@]34[H])[C@@]1(C)CCC(O)C2; assay: as §1
[16] = substrate: CCOC(=O)Nc1ccc(NCc2ccc(F)cc2)cc1N; assay: as §1
[17] = substrate: CN1CCN(C2=Nc3ccccc3Oc3ccc(Cl)cc32)CC1; assay: as §1
[18] = substrate: Nc1ccc(-c2ccc(N)cc2)cc1; assay: as §1
[19] = substrate: C[C@@H]1CC[C@@]2(OC1)O[C@H]1C[C@H]3[C@@H]4CC[C@H]5C[C@@H](O)CC[C@]5(C)[C@H]4CC[C@]3(C)[C@H]1[C@@H]2C; assay: as §1
[20] = substrate: CN(C)CCC=C1c2ccccc2CCc2ccccc21; assay: as §1
[21] = substrate: CC1CC[C@H](C(C)C)[C@@H](O)C1; assay: as §1
[22] = substrate: Cc1ccc(C(C)C)cc1O; assay: as §1
[23] = substrate: Clc1ccc2c(c1)N=C(N1CCNCC1)c1ccccc1N2; assay: as §1
[24] = substrate: Nc1ccc(-c2ccccc2)cc1; assay: as §1

Work on CN(C)CCCN1c2ccccc2Sc2ccc(Cl)cc21 [CHLORPROMAZINE] yielded a Km [1] of 93 µM.

B1: UDP-glucuronosyltransferase 1A4 (Homo sapiens) (protein)
chain: MARGLQVPLPRLATGLLLLLSVQPWAESGKVLVVPTDGSPWLSMREALRELHARGHQAVVLTPEVNMHIKEEKFFTLTAYAVPWTQKEFDRVTLGYTQGFFETEHLLKRYSRSMAIMNNVSLALHRCCVELLHNEALIRHLNATSFDVVLTDPVNLCGAVLAKYLSIPAVFFWRYIPCDLDFKGTQCPNPSSYIPKLLTTNSDHMTFLQRVKNMLYPLALSYICHTFSAPYASLASELFQREVSVVDLVSYASVWLFRGDFVMDYPRPIMPNMVFIGGINCANGKPLSQEFEAYINASGEHGIVVFSLGSMVSEIPEKKAMAIADALGKIPQTVLWRYTGTRPSNLANNTILVKWLPQNDLLGHPMTRAFITHAGSHGVYESICNGVPMVMMPLFGDQMDNAKRMETKGAGVTLNVLEMTSEDLENALKAVINDKSYKENIMRLSSLHKDRPVEPLDLAVFWVEFVMRHKGAPHLRPAAHDLTWYQYHSLDVIGFLLAVVLTVAFITFKCCAYGYRKCLGKKGRVKKAHKSKTH
B1 was tested, and the Km [2] was 47 µM, the Km [3] was 1100 µM and the Km [4] was 150 µM. For the same molecule, the Km [5] was 1570 µM, the Km [6] was 310 µM and the Km [7] was 7.3 µM. For the same molecule, the Km [8] was 11600 µM, the Km [9] was 70 µM and the Km [10] was 62 µM. It also gave a Km [11] of 13 µM, a Km [12] of 18 µM and a Km [13] of 240 µM. For the same molecule, the Km [14] was 400 µM, the Km [15] was 16 µM and the Km [16] was 322 µM. The Km [17] was 27 µM, the Km [18] was 460 µM and the Km [19] was 7 µM. It also gave a Km [20] of 60 µM, a Km [21] of 470 µM and a Km [22] of 1500 µM. For the same molecule, the Km [23] was 56 µM and the Km [24] was 66 µM.
